The results in this text go back to PMC6848142.

Broadly, the Kd is the equilibrium constant for the complex coming apart. A low value points to a tighter complex.

The data set has as its system KRAS wild type. Kind of data set: MST. The settings on record: MST: labeled protein 20 nM final in PBS, RNA diluted in deionized water and mixed 1:1; RNA folded in TE (70 C 5 min, then ice 15 min); pH and assay temperature ….

SNORD50B returned a Kd of 122 nM.

SNORD50A: the Kd turned out to be 140 nM.
